Article PMC2169338 (The Journal of Cell Biology, 1999)

Columns and labels:
[1] = target: the molecule itself; assay: 35S-sulfate labelling, SDS-PAGE and phosphorimaging of the purified complex
SDS-PAGE = target: the molecule itself; assay: SDS-PAGE

B1: Tom40 (natural protein)
chain: not shown
stoichiometry N [1]: ~8 copies of Tom40 in the core complex

B2: Tom70 (receptor, UniProt P23231 1-624, looked up)
chain: MAPTIPPPSVPIPAATPVTVPADSSIWDRVSNWVSEHKAVVYTIAGVSVVITTAGVVYYLRKGSEQKESGPKLSKKERRKRKQAEKGEAEKASTSKTEEAAPTQPKAAAVESADELPEIDEESVVRLSEDERKAYAAKLKELGNKAYGSKDFNKAIDLYSKAIICKPDPVYYSNRAACHNALAQWEQVVADTTAALKLDPHYVKALNRRANAYDQLSRYSDALLDFTASCIIDGFRNEQSAQAVERLLKKFAENKAKEILETKPPKLPSSTFVGNYLQSFRSKPRPEGLEDSVELSEETGLGQLQLGLKHLESKTGTGYEEGSAAFKKALDLGELGPHEALAYNLRGTFHCLMGKHEEALADLSKSIELDPAMTQSYIKRASMNLELGHPDKAEEDFNKAIEQNAEDPDIYYHRAQLHFIKGEFAEAAKDYQKSIDLDSDFIFSHIQLGVTQYKMGSIASSMATFRRCMKNFDQTPDVYNYYGELLLDQNKFQEAIEKFDTAIALEKETKPMCMNVLPLINKALALFQWKQDYAEAEQLCEKALIIDPECDIAVATMAQLLLQQGKVVEALKFFERAAELARTEGELVNALSYAEATRTQIQVQENYPELASKLQGMSGGPGMR
stoichiometry N (SDS-PAGE): 2
